Reference: patent US9725518B2, “Antibodies that bind to Jagged 1” (Cancer Research Technology Limited, priority 2013, dated 2017)

Key:
[1] = Soluble aggregates of transiently expressed antibodies; format: physicochemical; settings: Protein A purified antibody
Description: The protein yield of these antibodies, their levels of soluble aggregates and their binding affinity to the immunogen (J1-DE3) are illustrated in (Table 6).

[2] = target: T1, N1 binding to cell surface expressed hJ1 (Homo sapiens, UniProt P78504); assay: Notch binding blocking assay (FACS): N1 EGF11-13 beads staining human J1-expressing cells; parameters: key: +: Complete blocking; X: No blocking
T1 construct: cell expressed full length human J1 (hJ1; HEK293 transfectants); expressed in transfected cells; host or cells: HEK293
T1 sequence (P78504 34-1218): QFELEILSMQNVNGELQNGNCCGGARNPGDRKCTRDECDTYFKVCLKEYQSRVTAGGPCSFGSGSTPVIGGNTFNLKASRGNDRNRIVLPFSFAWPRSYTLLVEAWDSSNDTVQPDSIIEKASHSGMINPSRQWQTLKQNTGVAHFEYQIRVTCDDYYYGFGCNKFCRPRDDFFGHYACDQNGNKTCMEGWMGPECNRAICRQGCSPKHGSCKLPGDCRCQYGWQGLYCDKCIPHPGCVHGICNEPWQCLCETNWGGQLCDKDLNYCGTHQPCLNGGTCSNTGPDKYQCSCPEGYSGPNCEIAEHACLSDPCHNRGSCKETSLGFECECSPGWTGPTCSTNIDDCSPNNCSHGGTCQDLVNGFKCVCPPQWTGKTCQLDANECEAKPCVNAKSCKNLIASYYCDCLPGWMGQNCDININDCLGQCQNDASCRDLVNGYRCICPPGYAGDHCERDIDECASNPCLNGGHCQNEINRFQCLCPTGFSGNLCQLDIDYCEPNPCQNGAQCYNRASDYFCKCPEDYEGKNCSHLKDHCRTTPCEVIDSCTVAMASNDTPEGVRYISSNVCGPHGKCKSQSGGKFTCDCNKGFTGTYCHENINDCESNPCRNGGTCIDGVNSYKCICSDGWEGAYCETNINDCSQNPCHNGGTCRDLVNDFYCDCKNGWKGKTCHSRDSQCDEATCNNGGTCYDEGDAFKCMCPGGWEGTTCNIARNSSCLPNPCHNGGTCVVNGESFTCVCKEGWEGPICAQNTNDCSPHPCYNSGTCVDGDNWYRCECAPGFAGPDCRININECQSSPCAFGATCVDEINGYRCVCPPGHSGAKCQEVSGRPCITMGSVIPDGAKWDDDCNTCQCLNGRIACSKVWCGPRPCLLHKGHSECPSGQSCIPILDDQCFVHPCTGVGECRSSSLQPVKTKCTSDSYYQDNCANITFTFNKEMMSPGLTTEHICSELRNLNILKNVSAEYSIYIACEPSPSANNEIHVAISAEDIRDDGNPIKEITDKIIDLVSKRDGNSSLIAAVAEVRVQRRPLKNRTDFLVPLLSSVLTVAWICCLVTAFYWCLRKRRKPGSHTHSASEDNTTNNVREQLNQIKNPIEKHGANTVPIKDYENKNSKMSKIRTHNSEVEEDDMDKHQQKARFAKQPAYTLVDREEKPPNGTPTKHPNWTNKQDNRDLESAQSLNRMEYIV
Protocol: To functionally identify mAbs with the capacity to disrupt the J1-N1 protein:protein interaction, hybridoma culture supernatants were tested in a FACS-based binding assay. Biotinylated soluble human N1 EGF11-13 recombinant protein was bound to avidin-coated beads and used to stain J1-expressing cells in the presence or absence of each mAb that recognised cell surface hJ1 by FACS. […] The four blocking antibodies of the invention were also able to block the binding of recombinant […] to a biotin-tagged J1 DSL-EGF3 recombinant protein in an ELISA assay (FIG. 1B). […] The four blocking mAbs of the invention were purified from serum-free culture supernatants and equal concentrations of purified antibodies were used to compare their activity in subsequent assays (unless hybridoma supernatant was specified). Sequence conservation across the DSL domain raised the possibility that the J1 mAbs may also be able to bind the Jagged 2 (J2) protein. Antibody binding specificity was initially tested by immunocytochemical labelling of cytospin samples of hJ1 and hJ2 transfectants (FIG. 2). All antibodies stained J1 transfectants but none stained the J2 transfected cells, and J2 expression in the same experiment was confirmed using a commercial anti-J2 antibody. The specificity of the purified mAbs was further investigated in mammalian cells transfected with hJ2, human Delta-like ligand 4 (hDLL4), or mJ1 (FIG. 3). Transfectants were FACS stained with 10 μg/ml of each of the four blocking mAbs.
To test the blocking efficiencies of the J1 mAbs, purified mAbs were titrated to determine the concentration required to block recombinant N1 binding to cell surface expressed hJ1. Beads coated with a bacterially-expressed N1 EGF11-13 protein were used to stain the hJ1-expressing cells in the presence of various concentrations of mAbs.
The FACS-based binding assay using biotinylated soluble human N1 EGF11-13 recombinant protein bound to avidin-coated fluorescent beads to stain J1-expressing cells was performed using a dilution series of each variant mAb to test their ability to block J1 binding to N1 by FACS (Table 7). […] Thus 12/16 J1-65D1 variants V1-12 and all J1-183D variants have the desired binding and blocking activity.
Human N1 EGF11-13 (411-526) was expressed in E. coli, refolded in vitro and labelled with purple fluorescent avidin-coated beads (Spherotech) as previously described. HEK293 cells transfected with human J1 or B16F10 cells transfected with mouse J1 were stained with N1 fluorescent beads in the presence of J1 antibody supernatants or purified antibody (murine, chimeric or humanised) diluted in HBBS/10% FCS. Cells were washed and re-suspended in staining buffer before being analysed with a FACSCalibur and data analysis with CellQuest. HEK293 cells transfected with human Jagged 2 and B16F10 cells transfected with human and mouse DLL4 were stained similarly to test blocking specificity.

[3] = final antibody concentration 0.2 μg/ml
[4] = final antibody concentration 0.4 μg/ml
[5] = final antibody concentration 0.6 μg/ml
[6] = final antibody concentration 1.0 μg/ml

| Blocking of Notch1 binding to cell surface Jagged 1 [2, 3] | Blocking of Notch1 binding to cell surface Jagged 1 [2, 4] | Blocking of Notch1 binding to cell surface Jagged 1 [2, 5] | Blocking of Notch1 binding to cell surface Jagged 1 [2, 6] | Molecule | % soluble aggregate [1] |
| --- | --- | --- | --- | --- | --- |
| X | + (Complete blocking) | + (Complete blocking) | + (Complete blocking) | J1-183D variant 11: humanised/de-immunised J1-183D: J1-183D_VL_3 + J1-183D_VH_3 (antibody, V domains shown) VH: QVQLVQSGAELKKPGASVKVSCKVSGYAFTDYAIHWVRQAPGQGLEWMGIINTYYGDSKYAQKFQGRVTMTVDTSTSTAYMELSSLRSEDTAVYYCARGYDGFAYWGQGTLVTVSSASTKGP VL: DIQMTQSPSSLSASVGDRVTITCRTSENIYSYLTWYQQKPGKAPKLLIYNAKILDSGVPSRFSGSGSGTDFTLTISSLQPEDFATYYCQHHYDIPWTFGGGTKLEIKRT | 2.5% |
| X | + (Complete blocking) | + (Complete blocking) | + (Complete blocking) | J1-183D variant 13: humanised/de-immunised J1-183D: J1-183D_VL_4 + J1-183D_VH_1 (antibody, V domains shown) VH: QVQLVQSGAELKKPGASVKVSCKVSGYAFTDYAIHWIRQAPGQGLEWMGIINTYYGDSKYNQKFKDRVTMTVDKSTSTAYMELSSLRSEDTAVYYCARGYDGFAYWGQGTLVTVSSASTKGP VL: DIQMTQSPSSLSASVGDRVTITCRTSENIYSYLTWYQQKPGKAPKLLIYHAKILDSGVPSRFSGSGSGTDFTLTISSLQPEDFATYYCQHHYDIPWTFGGGTKLEIKRT | 3.43% |
| X | + (Complete blocking) | + (Complete blocking) | + (Complete blocking) | J1-183D variant 10: humanised/de-immunised J1-183D: J1-183D_VL_3 + J1-183D_VH_2 (antibody, V domains shown) VH: QVQLVQSGAELKKPGASVKVSCKVSGYAFTDYAIHWIRQAPGQGLEWMGIINTYYGDSKYAQKFQGRVTMTVDTSTSTAYMELSSLRSEDTAVYYCARGYDGFAYWGQGTLVTVSSASTKGP VL: DIQMTQSPSSLSASVGDRVTITCRTSENIYSYLTWYQQKPGKAPKLLIYNAKILDSGVPSRFSGSGSGTDFTLTISSLQPEDFATYYCQHHYDIPWTFGGGTKLEIKRT | 2.89% |

More lines, now with the values behind:

| Molecule | Blocking of Notch1 binding to cell surface Jagged 1 [2, 3] | Blocking of Notch1 binding to cell surface Jagged 1 [2, 4] | Blocking of Notch1 binding to cell surface Jagged 1 [2, 5] | Blocking of Notch1 binding to cell surface Jagged 1 [2, 6] | % soluble aggregate [1] |
| --- | --- | --- | --- | --- | --- |
| J1-183D variant 2: humanised/de-immunised J1-183D: J1-183D_VL_1 + J1-183D_VH_2 (antibody, V domains shown) VH: QVQLVQSGAELKKPGASVKVSCKVSGYAFTDYAIHWIRQAPGQGLEWMGIINTYYGDSKYAQKFQGRVTMTVDTSTSTAYMELSSLRSEDTAVYYCARGYDGFAYWGQGTLVTVSSASTKGP VL: DIQMTQSPSSLSASVGDRVTITCRTSENIYSYLTWYQQKPGKAPKLLVYNAKILAAGVPSRFSGSGSGTDFTLTISSLQPEDFATYYCQHHYDIPWTFGGGTKLEIKRT | X | + (Complete blocking) | + (Complete blocking) | + (Complete blocking) | 3.58% |
| J1-183D variant 4: humanised/de-immunised J1-183D: J1-183D_VL_1 + J1-183D_VH_4 (antibody, V domains shown) VH: QVQLVQSGAEVKKPGASVKVSCKASGYTFTDYAIHWVRQAPGQGLEWMGIINTYYGDSKYAQKFQGRVTMTVDTSTSTAYMELSSLRSEDTAVYYCARGYDGFAYWGQGTLVTVSSASTKGP VL: DIQMTQSPSSLSASVGDRVTITCRTSENIYSYLTWYQQKPGKAPKLLVYNAKILAAGVPSRFSGSGSGTDFTLTISSLQPEDFATYYCQHHYDIPWTFGGGTKLEIKRT | X | + (Complete blocking) | + (Complete blocking) | + (Complete blocking) | 0.85% |
| J1-183D variant 6: humanised/de-immunised J1-183D: J1-183D_VL_2 + J1-183D_VH_2 (antibody, V domains shown) VH: QVQLVQSGAELKKPGASVKVSCKVSGYAFTDYAIHWIRQAPGQGLEWMGIINTYYGDSKYAQKFQGRVTMTVDTSTSTAYMELSSLRSEDTAVYYCARGYDGFAYWGQGTLVTVSSASTKGP VL: DIQMTQSPSSLSASVGDRVTITCRTSENIYSYLTWYQQKPGKAPKLLIYNAKTLASGVPSRFSGSGSGTDFTLTISSLQPEDFATYYCQHHYDIPWTFGGGTKLEIKRT | X | + (Complete blocking) | + (Complete blocking) | + (Complete blocking) | 4.6% |
| J1-183D variant 7: humanised/de-immunised J1-183D: J1-183D_VL_2 + J1-183D_VH_3 (antibody, V domains shown) VH: QVQLVQSGAELKKPGASVKVSCKVSGYAFTDYAIHWVRQAPGQGLEWMGIINTYYGDSKYAQKFQGRVTMTVDTSTSTAYMELSSLRSEDTAVYYCARGYDGFAYWGQGTLVTVSSASTKGP VL: DIQMTQSPSSLSASVGDRVTITCRTSENIYSYLTWYQQKPGKAPKLLIYNAKTLASGVPSRFSGSGSGTDFTLTISSLQPEDFATYYCQHHYDIPWTFGGGTKLEIKRT | X | + (Complete blocking) | + (Complete blocking) | + (Complete blocking) | 3.92% |
| J1-183D variant 3: humanised/de-immunised J1-183D: J1-183D_VL_1 + J1-183D_VH_3 (antibody, V domains shown) VH: QVQLVQSGAELKKPGASVKVSCKVSGYAFTDYAIHWVRQAPGQGLEWMGIINTYYGDSKYAQKFQGRVTMTVDTSTSTAYMELSSLRSEDTAVYYCARGYDGFAYWGQGTLVTVSSASTKGP VL: DIQMTQSPSSLSASVGDRVTITCRTSENIYSYLTWYQQKPGKAPKLLVYNAKILAAGVPSRFSGSGSGTDFTLTISSLQPEDFATYYCQHHYDIPWTFGGGTKLEIKRT | X | + (Complete blocking) | + (Complete blocking) | + (Complete blocking) | 2.87% |
| J1-183D variant 5: humanised/de-immunised J1-183D: J1-183D_VL_2 + J1-183D_VH_1 (antibody, V domains shown) VH: QVQLVQSGAELKKPGASVKVSCKVSGYAFTDYAIHWIRQAPGQGLEWMGIINTYYGDSKYNQKFKDRVTMTVDKSTSTAYMELSSLRSEDTAVYYCARGYDGFAYWGQGTLVTVSSASTKGP VL: DIQMTQSPSSLSASVGDRVTITCRTSENIYSYLTWYQQKPGKAPKLLIYNAKTLASGVPSRFSGSGSGTDFTLTISSLQPEDFATYYCQHHYDIPWTFGGGTKLEIKRT | X | + (Complete blocking) | + (Complete blocking) | + (Complete blocking) | 4.38% |
